# B1: SPRY domain-containing SOCS box protein 2 (Mus musculus), O88838 (parent)
# chain: MGQTALARGSSSTPTSQALYSDFSPPEGLEELLSAPPPDLVAQRHHGWNPKDCSENIDVKEGGLCFERRPVAQSTDGVRGKRGYSRGLHAWEISWPLEQRGTHAVVGVATALAPLQADHYAALLGSNSESWGWDIGRGKLYHQSKGLEAPQYPAGPQGEQLVVPERLLVVLDMEEGTLGYSIGGTYLGPAFRGLKGRTLYPSVSAVWGQCQVRIRYMGERRVEEPQSLLHLSRLCVRHALGDTRLGQISTLPLPPAMKRYLLYK
# partner: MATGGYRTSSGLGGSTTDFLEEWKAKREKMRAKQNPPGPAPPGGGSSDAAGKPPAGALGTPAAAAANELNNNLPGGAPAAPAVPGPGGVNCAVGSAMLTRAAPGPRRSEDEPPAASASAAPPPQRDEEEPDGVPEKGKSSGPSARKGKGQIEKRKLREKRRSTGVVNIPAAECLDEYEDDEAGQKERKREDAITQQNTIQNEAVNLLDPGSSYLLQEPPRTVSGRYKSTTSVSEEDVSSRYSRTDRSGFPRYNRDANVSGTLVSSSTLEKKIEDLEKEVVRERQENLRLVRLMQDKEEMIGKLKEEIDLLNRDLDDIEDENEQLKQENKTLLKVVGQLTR
# B2: PRKC apoptosis WT1 regulator protein (Homo sapiens), Q96IZ0 (parent)
# chain: B1 partner
# partner: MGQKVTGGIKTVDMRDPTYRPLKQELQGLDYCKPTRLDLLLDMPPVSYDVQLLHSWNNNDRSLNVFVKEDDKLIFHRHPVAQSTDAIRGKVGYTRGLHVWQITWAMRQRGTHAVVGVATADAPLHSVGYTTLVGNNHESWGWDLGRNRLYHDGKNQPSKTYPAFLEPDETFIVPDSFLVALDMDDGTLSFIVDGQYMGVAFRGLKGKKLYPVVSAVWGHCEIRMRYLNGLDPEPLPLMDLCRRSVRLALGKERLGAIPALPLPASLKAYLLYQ
# B3: PRKC apoptosis WT1 regulator protein (Homo sapiens), Q96IZ0 (parent)
# chain: B1 partner
# Variants of: B1
# Conditions: with pawr_human PAWR, Q96IZ0
row,Variant,effect of a mutation on the interaction
1,S126A;N127A;S128A,disrupting interaction
2,V206A,disrupting interaction
3,L123A;L124A;G125A,disrupting interaction
4,Y120A,disrupting interaction

# Variants of: B2
# Conditions: with spsb1_mouse Spsb1, Q9D5L7
row,Variant,effect of a mutation on the interaction
1,E68D;L69I,increasing interaction
2,N71A,disrupting interaction
3,N70A,disrupting interaction

# Variants of: B3
# Conditions: with spsb2_mouse Spsb2, O88838
row,Variant,effect of a mutation on the interaction
1,N70A,disrupting interaction
2,E68D;L69I,increasing interaction
3,L69I,increasing interaction
4,E68D,increasing interaction
5,N71A,disrupting interaction

# Variants of: B3
# Conditions: with spsb4_mouse Spsb4, Q8R5B6
# Chain of spsb4_mouse Spsb4, Q8R5B6 (Q8R5B6 whole entry): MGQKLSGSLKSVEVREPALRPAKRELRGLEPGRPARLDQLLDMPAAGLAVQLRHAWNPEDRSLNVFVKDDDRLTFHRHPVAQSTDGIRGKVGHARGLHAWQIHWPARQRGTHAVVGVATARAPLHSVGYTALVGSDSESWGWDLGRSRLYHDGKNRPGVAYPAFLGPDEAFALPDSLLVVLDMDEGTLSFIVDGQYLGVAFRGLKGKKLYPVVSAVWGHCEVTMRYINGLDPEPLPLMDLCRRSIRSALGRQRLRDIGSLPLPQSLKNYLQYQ
row,Variant,effect of a mutation on the interaction
1,N70A,disrupting interaction
2,E68D;L69I,increasing interaction
3,L69I,increasing interaction
4,E68D,increasing interaction
5,N71A,disrupting interaction

# Variants of: B3
# Conditions: with spsb2_mouse Spsb2, O88838
# Remark: another data set of the same source
row,Variant,effect of a mutation on the interaction
1,N72A,disrupting interaction

# Variants of: B3
# Conditions: with spsb4_mouse Spsb4, Q8R5B6
# Remark: another data set of the same source
row,Variant,effect of a mutation on the interaction
1,N72A,disrupting interaction
